Assay results: US20190055314A1 (ADAGENE, published 2019)
Substitutions are numbered along the chain they refer to. Values belong to the binder of their own block, whether it stands above or below them.

What was measured:
[1] = molecular target: T1, human CD137-His6 (Sino Biological #10041-H08H) (human, UniProt Q07011 24-186); assay: SPR Biacore, IgG captured; Table 3 run, IgG captured by anti-human Fc; Table 1b gives 3.8E-08 M from a separate measurement
T1 construct: Bought; also called human CD137 protein; not shown: His6 tag

[2] = molecular target: T2, full-length monkey CD137 on the cell surface (cynomolgus monkey, UniProt Q07011 24-179 (human entry)); assay: flow cytometry, HEK293F cells expressing CD137 or mutant [Cont.]
T2 chain: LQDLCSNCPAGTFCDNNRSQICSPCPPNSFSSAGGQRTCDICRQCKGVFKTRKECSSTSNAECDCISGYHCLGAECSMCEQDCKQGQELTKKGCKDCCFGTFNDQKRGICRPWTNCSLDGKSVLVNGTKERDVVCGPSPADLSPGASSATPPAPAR

[3] = molecular target: T3, mouse CD137 protein (Biacore) (mouse, UniProt P20334 24-178, limits assumed); assay: SPR Biacore
T3 construct: Construct used as SPR analyte not described
T3 sequence: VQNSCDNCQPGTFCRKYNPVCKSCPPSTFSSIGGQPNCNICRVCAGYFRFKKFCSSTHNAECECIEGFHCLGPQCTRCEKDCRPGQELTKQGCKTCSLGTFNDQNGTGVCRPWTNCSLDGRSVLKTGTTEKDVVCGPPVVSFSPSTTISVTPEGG

[4] = molecular target: T4, CD27 overexpressed on HEK293F cells (UniProt P26842 20-260, limits assumed); assay: flow cytometry, HEK293F cells expressing the receptor [Cont.]
T4 construct: whole, on cells
T4 sequence (looked up): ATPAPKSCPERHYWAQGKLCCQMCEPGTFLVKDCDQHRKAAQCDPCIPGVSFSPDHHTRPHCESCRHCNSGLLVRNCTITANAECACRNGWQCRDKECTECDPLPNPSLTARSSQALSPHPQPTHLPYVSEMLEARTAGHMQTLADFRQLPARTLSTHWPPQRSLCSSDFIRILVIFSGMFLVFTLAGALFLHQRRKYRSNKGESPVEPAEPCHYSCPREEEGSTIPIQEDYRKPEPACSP

[5] = molecular target: T5, mouse CD137 fused with human FC fragment (mouse, UniProt P20334 24-178, limits assumed); assay: ELISA, CD137-Fc coated in serial dilution, IgG 5 µg/mL, protein L-HRP
T5 construct: also called mouse CD137-Fc; not shown: human Fc fragment
T5 sequence: T3 sequence

[6] = molecular target: T4, CD27 overexpressed on HEK293F cells; assay: flow cytometry, HEK293F cells expressing the receptor, antibody 100 nM [Cont.]
[7] = molecular target: T6, CD40 overexpressed on HEK293F cells (UniProt P25942 21-277, limits assumed); assay: as above
T6 construct: whole, on cells
T6 sequence (P25942 21-277 limits assumed): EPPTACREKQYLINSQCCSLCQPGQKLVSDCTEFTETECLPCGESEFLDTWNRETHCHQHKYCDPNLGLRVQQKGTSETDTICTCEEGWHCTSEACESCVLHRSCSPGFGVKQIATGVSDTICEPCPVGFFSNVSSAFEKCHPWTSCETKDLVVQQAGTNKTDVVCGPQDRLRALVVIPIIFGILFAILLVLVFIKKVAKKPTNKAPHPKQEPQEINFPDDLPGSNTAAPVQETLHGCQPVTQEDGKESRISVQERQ

[8] = molecular target: T7, GITR overexpressed on HEK293F cells (UniProt Q9Y5U5 26-241, limits assumed); assay: as above
T7 construct: whole, on cells
T7 sequence (looked up): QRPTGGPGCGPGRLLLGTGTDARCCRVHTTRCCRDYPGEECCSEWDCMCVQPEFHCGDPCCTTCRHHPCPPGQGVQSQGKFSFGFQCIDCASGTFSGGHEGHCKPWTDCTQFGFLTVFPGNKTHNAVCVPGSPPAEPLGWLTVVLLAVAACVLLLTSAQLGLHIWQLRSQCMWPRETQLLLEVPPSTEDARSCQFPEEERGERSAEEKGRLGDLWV

[9] = molecular target: T8, OX40 overexpressed on HEK293F cells (UniProt P43489 29-277, limits assumed); assay: as above
T8 construct: whole, on cells
T8 sequence (looked up): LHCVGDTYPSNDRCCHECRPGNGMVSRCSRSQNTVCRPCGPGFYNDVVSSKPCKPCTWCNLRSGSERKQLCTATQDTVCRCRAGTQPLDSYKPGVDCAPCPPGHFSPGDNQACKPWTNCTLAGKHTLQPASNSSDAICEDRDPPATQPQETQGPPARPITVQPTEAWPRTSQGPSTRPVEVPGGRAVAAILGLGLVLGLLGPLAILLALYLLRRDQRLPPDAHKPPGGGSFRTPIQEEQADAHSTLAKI

Hu_F72A = molecular target: T9, Hu_F72A (human, UniProt Q07011 18-255); assay: flow cytometry, HEK293F
T9 construct: On HEK293F; also called human CD137 F72A
T9 sequence (Q07011 18-255 F72A): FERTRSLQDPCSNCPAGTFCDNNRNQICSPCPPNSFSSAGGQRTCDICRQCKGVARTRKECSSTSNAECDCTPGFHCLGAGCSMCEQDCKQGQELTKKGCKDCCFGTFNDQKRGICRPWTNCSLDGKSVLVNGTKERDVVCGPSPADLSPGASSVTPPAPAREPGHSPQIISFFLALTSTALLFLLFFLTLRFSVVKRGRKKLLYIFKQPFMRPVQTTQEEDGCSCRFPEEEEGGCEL

Hu_T35A = molecular target: T10, Hu_T35A (human, UniProt Q07011 18-255); assay: flow cytometry, HEK293F
T10 construct: On HEK293F; also called human CD137 T35A
T10 sequence (Q07011 18-255 T35A): as the sequence (Q07011 18-255 F72A) above, with T18A, A55F counted along it

Hu_F53A = molecular target: T11, Hu_F53A (human, UniProt Q07011 18-255); assay: flow cytometry, HEK293F
T11 construct: On HEK293F; also called human CD137 F53A
T11 sequence (Q07011 18-255 F53A): as the sequence (Q07011 18-255 F72A) above, with F36A, A55F counted along it

Hu_R66A = molecular target: T12, Hu_R66A (human, UniProt Q07011 18-255); assay: flow cytometry, HEK293F
T12 construct: On HEK293F; also called human CD137 R66A

Hu_F36A = molecular target: T13, Hu_F36A (human, UniProt Q07011 18-255); assay: flow cytometry, HEK293F
T13 construct: On HEK293F; also called human CD137 F36A
T13 sequence (Q07011 18-255 F36A): as the sequence (Q07011 18-255 F72A) above, with F19A, A55F counted along it

Hu_N83A = molecular target: T14, Hu_N83A (human, UniProt Q07011 18-255); assay: flow cytometry, HEK293F
T14 construct: On HEK293F; also called human CD137 N83A
T14 sequence (Q07011 18-255 N83A): as the sequence (Q07011 18-255 F72A) above, with A55F, N66A counted along it

Hu_F92A = molecular target: T15, Hu_F92A (human, UniProt Q07011 18-255); assay: flow cytometry, HEK293F
T15 construct: On HEK293F; also called human CD137 F92A

[10] = molecular target: T16, full-length mouse CD137 on the cell surface (mouse, UniProt P20334 24-178); assay: cell-based or functional assay
T16 sequence: T3 sequence

[11] = molecular target: T1, human CD137-His6 (Sino Biological …); assay: SPR Biacore, IgG captured
[12] = molecular target: T3, mouse CD137 protein (Biacore); assay: SPR Biacore, IgG captured

- Kd [1]: 24.2 nM
- % in upper right quadrant [2]: 42.4%
- binding result [3]: no binding
- binding result [5]: no binding
- Mean [6]: 13200
- Mean [7]: 7260
- Mean [8]: 5980
- Mean [9]: 6780
B1: AG10059 (antibody, human IgG4 S228P, kappa, V domains shown)
VH: EVQLVESGGGLVQPGGSLRLSCAASGYSITSGHYWAWIRQAPGKGLEWVSSISGYGSTTYYADSVKGRFTISRDNSKNTLYLQLNSLRAEDTAVYYCARGGSDAVLGDWFAYWGQGTLVTVSS
VL: DIQLTQSPSSLSASVGDRVTITCRASQGIGSFLAWYQQKPGKAPKLLIYDASNLETGVPSRFSGSGSGTDFTLTISSLQPEDFATYYCQQGYYLWTFGQGTKVEIKR
- binding result [4]: no binding (tested: 100 nM (text paragraph 226))

- binding result (Hu_F72A): no binding
- binding result (Hu_T35A): no binding
- binding result (Hu_F53A): no binding
- binding result (Hu_R66A): no binding
- binding result (Hu_F36A): no binding
- binding result (Hu_N83A): no binding
- binding result (Hu_F92A): no binding
- NFκB luciferase reporter, 293T cells with mouse CD137: EC50 (read off the curve) [10]: ~3 nM
- Kd [11]: 5.9 nM
- Kd [12]: 15.2 nM
B2: AG10058 (antibody, human IgG4 S228P, kappa, V domains shown)
VH: EVQLVESGGGLVQPGGSLRLSCAASGFSLSTSGVGVGWIRQAPGKGLEWLALIDWDDDKYYSPSLKSRLTISRDNSKNTLYLQLNSLRAEDTAVYYCARGGSDTVLGDWFAYWGQGTLVTVSS
VL: B1 VL with G28S, I29V, G30S, S31P, F32Y, N53S, T56S, Y93S
